Source: the nanobody polyreactivity screen of Harvey et al. (2022)

Test: yeast display, Sf9 membrane polyspecificity reagent, FACS + sequencing; frameworks hold sequencing errors
Procedure, shortened: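 Genes from sorted yeast were amplified by colony PCR, read by MiSeq 2 × 250 sequencing and filtered on CDR length. These cells carried a synthetic nanobody library in Saccharomyces cerevisiae BJ5465 and were sorted by FACS into low and high (top ~1%) gates on anti-HA and streptavidin fluorescence. Polyreactivity is labelled according to the gate of origin.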

| Sequence | polyreactivity (PSR sort gate) |
| --- | --- |
| QVQLVESGGGLVQEGGSLRLSCADSGSISYQNAMGWYRQAPGKERELVAAISGDGDSTYYADSVKGRFTISRDNAKNTVYLQMNSLNPEDTGVYYCAAEPNVYFSVFVLFPSDYWGQGTQVTVSS | low polyreactivity |
| QVQLVESGGGLVQAGGSLRLSCAASGRTFNIYAMGWYRQEPGKERELVAAITNNGGRTYYADSVKGRFTISRDNAKNTVYLQMNSLKPEDTAVYYCAAVSGRSYDKYYYWGQGTQVTVSS | high polyreactivity |
| QVQLVESGGGRDQAGGSLRLSCAASGSTFNGYAMGWYRQAPGKERELVAAISSRGGSTNYADSVKGRFTISRDNAKKTVYLQMNSLKPEDTAVYYCNAVYRRSRSVGSCFDDWGQVTQVTVSS | high polyreactivity |
| QVQLVESGGGLVQAGGSLRLSCADSGITFGVYAMGWYRQAPGKERELVAAISRRGASTYYADSVKGRFTISRDNAKNTVYLQMNSLKPEDTAVYYCAAYLARRQYDYWGQGTQVTVSS | high polyreactivity |
| QVQLVETGGGLVQAGGSLRISCAASGFIFPSYAMGWYRQAPGKERELVAAITSGGRTYYADSVKGLFTISRDNAKKTVYLQMNSLKPEDYAVYYCAAKSHSKTGTRYYYCGQGTQVTVSS | high polyreactivity |
| QVQLVESVGGLVQAGGSLRLSCAASGRIFARYAMGWYRQAPGKERELVAAITKSVGSTYYADSVKGRFTISRDNAKKTVYLQMNSLKPEDTAVYYCARVVADSEYDYWGQGTQVTVSS | high polyreactivity |
| QVQLVESGGGLVQAGGSLRLSCAASGFIFAGYVMGWSRQAPGKERELVAAISSGGRTYYADSVKGRFTISRDNAKNTVYLQMNSLKPEDTAVYYCAAARWQVRATEGNYWGQGTQVTVSS | high polyreactivity |
| QVQLVESGGGLVQAGGSHRLSFAASGSLFYWYAMGWYRQAPGKERELVAAITTSGGRTYYADSVKGRFTISRDNAKNTVYLQMNSLIPEDSAVYYCNSAALFRYYDRWKTAYDYWGQGTQVTGSS | high polyreactivity |
| QVQLVESGGGLVQAGGSLRLSCAASGFTFYQYAMGWYRQAPGKERELVAAISSSGTSTYYADSVKGRFTISRDNAKNTVYLQMNSLKPEDTAVYYCAKDKSPYGYATNQYRKYYYWGQGTQVTVSS | low polyreactivity |
| QVQLVESGGGLVQAGGSLRLSCAASGSIFYVYAMGWYRQAPGKERELVAAISRGGGSTSYADSVKGRFTISRDNAKNTVYLQMNSLKPEDTAVYYCNAYTYYHANHEQGFGYWGQGTQVTVSS | low polyreactivity |
| QVQLVESGGGLVQAGGSLRLSCAASGSTFDGYAMGWSRQAPGKERELVGSITRRGGSTYYADSVKGRFTISRDNAKNTVYVQMNSLKPEDTAVYYCAVLGRGVSGYTWPYDYWGQGTQVTVSS | high polyreactivity |
| QVQLVESGGGLVQAGGSLRLSCAASGNNFRSYAMGWYRQATGKERELVAAISGRGGSTYYADSVKGRFTISRDNAKNTVYLQMNSLKPEDTAVYYCAAESRRVNYANDYWGQGTQVTVSS | high polyreactivity |
| QVQLVESGGGLVQAGGSLRLSCAASGITIVNYVMGWYRQAPGKERELVAAISIGGGTYYADSVKGRFTISRDNAKNTVYLQRNSLKPEDTAVYYCNATFGGLSFYIGVYVTGYDYWGQGTQVTVSS | low polyreactivity |
| QVQLVESGGGLVQAGGSLRLSCAASGRTFSGYAMGWYRQAPGKEREFVAAITSSGGSTYYADSVKGRFTISRDNAKNTVYLQMNSLKPEDTAVYYCAARIRHFSVGYYYWGQGTQVTVSS | high polyreactivity |
| QVQLVESGGGLVQEGASLRLSCAASGSIVGYYAMGWYRQAHGKERELVAAITRYGGRTYYADSVKGRFTISRDNGKNTVYLQMNSLKPEDTAVYYCNAANSRYAYYYWGQGTQVTVSS | high polyreactivity |
| QVQLVESGGGLVQAGGSLRLSCAASGNIFAWYAMGWYRQAPGKERELDADISSRGGSTYYADSVKGRFTISRDNAKNTVYLQMNSLKPEDTAVYYCAAVWYWTQDYDYWGQGTQVTVSS | low polyreactivity |
| QVQLVESGVGLVQAGGSLRLTCAASGSIFTAYPMGSYRQAPGKERELVAAISRSGGRTYYADSVKGRFTISRDNAQITVNFQFNSLKPEDTAVYNCAAASRSTNYNYYYWGLGTQVTVSS | high polyreactivity |
| QVQLVESGAGLVQAGGSLRLSCAASGSTFGRNAMGWYRQPPGKERELVASISSGGSTYYADSVKGRFTISRDNAKNTVYLQMNSLKPEDTAVYYCAKDWVYEISYYYYELDYWGQGTQVTVSS | low polyreactivity |
| QVQLVESGGGLVQAGGSLRLSCAASGFTFRRYAMGWYRQAPGKERELVAGITGRGGSTYYADSVKGRFTISRDNAKNTVYLQMNSLKPEDTAVYYCNKPRAARGYLTGQLDYWGQGTQVTVSS | high polyreactivity |
| QLHLQESGGLVQAGGLRLSCAASGSVSYQEAMGWYRQAPGKERELVATISFGANTNYADSVKGRFTISRDNAKNTVYLQMNSLKPEDTAVYYCAAESLFDDYYGYWGQGTQVTVSS | low polyreactivity |
| QVQLVESGGGLVQAGGSLRLISAASGRTFYSNAMGWYRQAPGKERELVAAITKSGGRTYYADSVKGRFTISRDNAKNTDYLQMNSLIPEDTAVYYCKALVAAYYGYDYWGQGTQVTVSS | high polyreactivity |
| QVQLVESGGGLVLAGGSLRLSCAASEFIFARNGMGWYIQAPGKERELVAAITKSGSTYADSVKGRFTISRDNAKNTVYLQMNSLKPEDTAVYYCNKDPGNVSSFTGGGYWGQGTQVTVSS | low polyreactivity |

| Sequence | polyreactivity (PSR sort gate) |
| --- | --- |
| QVQLVESGGGLVQAGGSLRISCAASGRIFRGNALGWYRQAPGTERELVAAITRSGGSTYYADSVKGRFTISRDNAKNTVYLQMNSLKPEDTAVYYCAAGYPYYSYLYDYWGQGTQVSVSS | high polyreactivity |
| QVQLVESGGGLVQAGGSLRLSCAASGSTFHRYAMGWYRQAPGKERELVATITSRGGITYYADSVKGRFTISRDNSKNTVYLQMNSLNPEDTALYYCNTEDGTTPQYGYDQGMYYWGQGTQVTVSS | low polyreactivity |
| QVQLVESGGGLVQAGGSLRISCAASGSTFSLNAMGWYRQAPGKERELVAAISSRGTSTYYADSVKGRFTISRDNAKNTVYLQMNSLKPVDTAVYYCAAGKPKIPDDDYWGQGTQVTVSS | high polyreactivity |
| QVQLVESGGGLVQAGGSLRLSCAASGRTFDRNAMGWYRQAPGKERELVARITIDGSTNYADSVKGRFTISRDNAKNTVYLQMNSLKPEDTAVYYCATDQLSLSWYFRPYDYGYWGQGTQVTVSS | high polyreactivity |
| QVQLVESGGGLVQAGGSLRLSCAASGSIFRVYAMGWYRQAPGKERELVARISRTGVSTYYADSVKGRFTISRDNAKNTVYLQMNSLKPEDTAVYYCAVLIPYSSRSYRSTWYGYWGQGTQVTVSS | high polyreactivity |
| QVQLVESGGGLVQAGGSLRLSCAASGSTFVLYAMGWYRQAPGKERELVAAITKRGGNTYYADSVKGRFTISRDNAKNTVYLQMNSLKPEDTAVYYCAADHVRSPFDSWGQGTQVTVSS | low polyreactivity |
| QVQLVESGGGLDQAGGSLRLSCAASGSTFGTYAMGWYRQAPGKEWQLVADITGSGGSTYYADSVKGRFTISRDNAKNTVYLQMNSLKPEDTAVYYCAGEYGLGDDTAYGYWGQGTQGTVSS | low polyreactivity |
| QVQLVESGGGLVNAGGSLRLSCAASGITFWGYAMGWYRQAPGKERELVAAITSGGTTYYADSVKGRFTISRDNAKNTVYLQMNSLKPEDTAVYYCNARYPSADDWGQGTQVTVSS | high polyreactivity |
| QVQLVESGGGLVQAGGSLRLSCAASGSIFGTYTMGWYRQAPGKERELVAAISRSGTSTYYADSVKGRFTISRDNAKNTVYLQMNSLKPEDTAVYYCAASPDPYWRRMDYWGQGTQVTVSS | high polyreactivity |
| QVQLVESGGGLVQAGGSLRLSCAASGRIFKVYAMGWYRQAPGKERDLVAVISRGGSTYYADSVKGRFTISRDNAKNTVYLQMKSLKPEDTAVYYCAARLTYTGGQGAYDYWGQGTQVTVSS | high polyreactivity |
| QVQLVESGGGLVQAGGSLRLSCAASGSTFGTYAQGCYRQAPVKDRELVAAITYSTGNTYDADSVKGRFTISRDNAKNTVYLQMNSLKPEDTAVYYCALEYVYDYFWMDYWGQGTQVTVSS | high polyreactivity |
| QVQLVESGGGLVQAGGSLRLSCAASARTYGANAMGRYRQAPGKERELVAAISYHGTRTYYADSVKGRFTISRDNAKNTVYLQMNSLKPEDTAVYYCAAVCKPGVYQEGDEWGQGTQVTVSS | high polyreactivity |
| QVQLVESGGGLVHAGGSLRLSCAASGLTFVNYAMGWYRQAPGKERELVATISKTGGSTYYADSVKGRFTISRDNAKNTVFLQMNSLKPEDTAVYYCAVDAYYYKWYDYWGQGTQVSVSS | high polyreactivity |
| QVQLVESGGGLVQAGGSLRFSCAASGSTFRPNAMGWYRPAPGKERELVAAISRSGVSTYYADSVKGRFTISRDNAKNTVYLQMNSLKPEDTAVYYCAAKLVVSYGQEYDYWGQGTQVTVSS | low polyreactivity |
| QVLLVESGGGLVQAGGILRLSCAASGLTFTYYAMGWYRQAPGKERELVAAISRCGTGTYYADSVKGRFTISRDNAKNTVYLHMNSLKPEDTAVYYCATLPGRYFTANEYWGQGTQVTVSS | high polyreactivity |
| QVQLVESGGGLVQAGGSLLLSCAASGSTFIWNAMGWYRQAHGKERELVAAISSGGSTYYADSVKGRFTISRDNAKNTVYLQMNSLKPEDTAVYYCAAEYVYNVWEQRYAVYSTDDYWGQGTQVTVSS | low polyreactivity |
| QVQLVESGGGLVQAGGSLRLSCAASGFIFRDYEMGWYRQAPGKERELVAAISWRGGTYYADSVKGRFTISRDNAKNTVYLQMNSLKPEDTAGYYCNATRYRLRPSGVRYKYNYWGQGTQVTVSS | low polyreactivity |
| QVQLVESGGGLVHAGGSLRLSCAAYGRTYGTNAMGWYRQAPVKERELVAAIRRGGSRTYYADSVKGRFTISRDYAKNTVYLPMNSLKPEDTAVYYCAAKLRAYVDPFEYWGQGTQVTVSS | low polyreactivity |
| QVQLVESGGGLVQAGGSLRLSCAASGSTFWSYAMGWYRQATGKERELVAAITSGGRTYYADSVKGRFTISRDNAKNTVYLQMNCLKAEDTAVYYCAAEGSVGLYGMIMHYWGQGTQVTVSS | high polyreactivity |
| QVQLVESGGGLVQAGGSLRLSCAASGITFIYYAMGWYRQAPGKEREFVAAITFRDGDTYYADSVKGRFTISRDNAKNTVYLQMNSLKPEDTAVYYCADTYWVYYFYPGYDYWGQGTQVTVSS | low polyreactivity |
| QVQLVESGGRLVQAGGSLRLSCAASGGTFRVYAMGWNRQAPGKEIEFVAAISAHGGRTYYADSVKGRFTISRDNAQNTVYLQLNSLKPEDTAVYYFYNRLPNSQDGTSAHYTYYSWGQGTQVTVSS | low polyreactivity |
